{"source": "paper PMC3938503", "molecular_target": "T1, CRPM (cAMP receptor protein of Mtb) (Mycobacterium tuberculosis) (UniProt P9WMH3)", "T1 sequence": "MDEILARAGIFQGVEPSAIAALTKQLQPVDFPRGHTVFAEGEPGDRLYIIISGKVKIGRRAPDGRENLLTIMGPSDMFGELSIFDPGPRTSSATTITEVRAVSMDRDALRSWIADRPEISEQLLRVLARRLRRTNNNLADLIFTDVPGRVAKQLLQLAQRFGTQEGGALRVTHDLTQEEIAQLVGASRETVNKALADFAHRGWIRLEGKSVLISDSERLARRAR", "assay": "EMSA", "data": [{"sequence": "TCAGCGACCGTCAGCACGCCAGTTCAATACGGCGAGAAGCGCGTTCTCATCGAAAGTCGGTCAAGCTGGCGGACTGAGCACTGCTCTCCGGGCTTGACCGGGGCCTCTCCCAGCTACGCCCCGAGCGTGTGCCCTGCCGACACGCGGGAACAAGACCCGCACGACCAGCGTTAGCATGCTCAGTAAGTTGAGTGCATCAGGCTCAGCTCTGAATTGACAGCACACCGCCGTCGAGGCAAGCTTGAGCGGGGTGCACTCATCATAGTGCAGGAAAGAAGCTCTACATATTCAGGAGGATTCACC (double strand) [dnaK-303]", "values": [{"measurement": "binding signal (fold reduced vs dnaK-346)", "result": 2}]}]}
